Data on three molecules can be found in PMC2816671 (2010).

B1: plasmin (protein)
chain: VVGGCVAHPHSWPWQVSLRTRFGMHFCGGTLISPEWVLTAAHCLEKSPRPSSYKVILGAHQEVNLEPHVQEIEVSRLFLEPTRKDIALLKLSSPAVITDKVIPACLPSPNYVVADRTECFITGWGETQGTFGAGLLKEAQLPVIENKVCNRYEFLNGRVQSTELCAGHLAGGTDSCQGDSGGPLVCFEKDKYILQGVTSWGLGCARPNKPGVYVRVSRFVTWIEGVMRNN
B2: active-site blocked plasmin (protein)
chain 1: KVYLSECKTGNGKNYRGTMSKTKNGITCQKWSSTSPHRPRFSPATHPSEGLEENYCRNPDNDPQGPWCYTTDPEKRYDYCDILECEEECMHCSGENYDGKISKTMSGLECQAWDSQSPHAHGYIPSKFPNKNLKKNYCRNPDRELRPWCFTTDPNKRWELCDIPRCTTPPPSSGPTYQCLKGTGENYRGNVAVTVSGHTCQHWSAQTPHTHNRTPENFPCKNLDENYCRNPDGKRAPWCHTTNSQVRWEYCKIPSCDSSPVSTEQLAPTAPPELTPVVQDCYHGDGQSYRGTSSTTTTGKKCQSWSSMTPHRHQKTPENYPNAGLTMNYCRNPDADKGPWCFTTDPSVRWEYCNLKKCSGTEASVVAPPPVVLLPDVETPSEEDCMFGNGKGYRGKRATTVTGTPCQDWAAQEPHRHSIFTPETNPRAGLEKNYCRNPDGDVGGPWCYTTNPRKLYDYCDVPQCAAPSFDCGKPQVEPKKCPGR
chain 2: VVGGCVAHPHSWPWQVSLRTRFGMHFCGGTLISPEWVLTAAHCLEKSPRPSSYKVILGAHQEVNLEPHVQEIEVSRLFLEPTRKDIALLKLSSPAVITDKVIPACLPSPNYVVADRTECFITGWGETQGTFGAGLLKEAQLPVIENKVCNRYEFLNGRVQSTELCAGHLAGGTDSCQGDSGGPLVCFEKDKYILQGVTSWGLGCARPNKPGVYVRVSRFVTWIEGVMRNN
modifications: Pefabloc (AEBSF) active-site blocked
B3: plasminogen (protein)
chain: EPLDDYVNTQGASLFSVTKKQLGAGSIEECAAKCEEDEEFTCRAFQYHSKEQQCVIMAENRKSSIIIRMRDVVLFEKKVYLSECKTGNGKNYRGTMSKTKNGITCQKWSSTSPHRPRFSPATHPSEGLEENYCRNPDNDPQGPWCYTTDPEKRYDYCDILECEEECMHCSGENYDGKISKTMSGLECQAWDSQSPHAHGYIPSKFPNKNLKKNYCRNPDRELRPWCFTTDPNKRWELCDIPRCTTPPPSSGPTYQCLKGTGENYRGNVAVTVSGHTCQHWSAQTPHTHNRTPENFPCKNLDENYCRNPDGKRAPWCHTTNSQVRWEYCKIPSCDSSPVSTEQLAPTAPPELTPVVQDCYHGDGQSYRGTSSTTTTGKKCQSWSSMTPHRHQKTPENYPNAGLTMNYCRNPDADKGPWCFTTDPSVRWEYCNLKKCSGTEASVVAPPPVVLLPDVETPSEEDCMFGNGKGYRGKRATTVTGTPCQDWAAQEPHRHSIFTPETNPRAGLEKNYCRNPDGDVGGPWCYTTNPRKLYDYCDVPQCAAPSFDCGKPQVEPKKCPGRVVGGCVAHPHSWPWQVSLRTRFGMHFCGGTLISPEWVLTAAHCLEKSPRPSSYKVILGAHQEVNLEPHVQEIEVSRLFLEPTRKDIALLKLSSPAVITDKVIPACLPSPNYVVADRTECFITGWGETQGTFGAGLLKEAQLPVIENKVCNRYEFLNGRVQSTELCAGHLAGGTDSCQGDSGGPLVCFEKDKYILQGVTSWGLGCARPNKPGVYVRVSRFVTWIEGVMRNN

In the test the target is von Willebrand factor (Homo sapiens, UniProt P04275). Briefly: Eu-labelled ligand solid-phase equilibrium binding.
Molecule B1 displayed a Kd of 160 nM.

On to B2, for which the dissociation constant Kd is 270 nM.

As to B3, the affinity, expressed as Kd, was 100 nM.

As a reminder, the Kd is the concentration at which binding is half-saturated. Lower therefore signals higher affinity.
